# Results: article PMC8586334, “Distinct RPA domains promote recruitment and the helicase-nuclease activities of Dna2” (Nature Communications, 2021)
# Biological target: Rfa1-AB-Y193D (S. cerevisiae)
# Experiment: cell-based or functional assay
binder,measurement,value
"S. cerevisiae Dna2-E675A (nuclease-dead) (enzyme, UniProt P38859 1-1522, looked up) MPGTPQKNKRSASISVSPAKKTEEKEIIQNDSKAILSKQTKRKKKYAFAPINNLNGKNTKVSNASVLKSIAVSQVRNTSRTKDINKAVSKSVKQLPNSQVKPKREMSNLSRHHDFTQDEDGPMEEVIWKYSPLQRDMSDKTTSAAEYSDDYEDVQNPSSTPIVPNRLKTVLSFTNIQVPNADVNQLIQENGNEQVRPKPAEISTRESLRNIDDILDDIEGDLTIKPTITKFSDLPSSPIKAPNVEKKAEVNAEEVDKMDSTGDSNDGDDSLIDILTQKYVEKRKSESQITIQGNTNQKSGAQESCGKNDNTKSRGEIEDHENVDNQAKTGNAFYENEEDSNCQRIKKNEKIEYNSSDEFSDDSLIELLNETQTQVEPNTIEQDLDKVEKMVSDDLRIATDSTLSAYALRAKSGAPRDGVVRLVIVSLRSVELPKIGTQKILECIDGKGEQSSVVVRHPWVYLEFEVGDVIHIIEGKNIENKRLLSDDKNPKTQLANDNLLVLNPDVLFSATSVGSSVGCLRRSILQMQFQDPRGEPSLVMTLGNIVHELLQDSIKYKLSHNKISMEIIIQKLDSLLETYSFSIIICNEEIQYVKELVMKEHAENILYFVNKFVSKSNYGCYTSISGTRRTQPISISNVIDIEENIWSPIYGLKGFLDATVEANVENNKKHIVPLAVKTGKSRSVSYEVQGLIYTLLLNDRYEIPIEFFLLYFTRDKNMTKFPSVLHSIKHILMSRNRMSMNFKHQLQEVFGQAQSRFELPPLLRDSSCDSCFIKESCMVLNKLLEDGTPEESGLVEGEFEILTNHLSQNLANYKEFFTKYNDLITKEESSITCVNKELFLLDGSTRESRSGRCLSGLVVSEVVEHEKTEGAYIYCFSRRRNDNNSQSMLSSQIAANDFVIISDEEGHFCLCQGRVQFINPAKIGISVKRKLLNNRLLDKEKGVTTIQSVVESELEQSSLIATQNLVTYRIDKNDIQQSLSLARFNLLSLFLPAVSPGVDIVDERSKLCRKTKRSDGGNEILRSLLVDNRAPKFRDANDDPVIPYKLSKDTTLNLNQKEAIDKVMRAEDYALILGMPGTGKTTVIAEIIKILVSEGKRVLLTSYTHSAVDNILIKLRNTNISIMRLGMKHKVHPDTQKYVPNYASVKSYNDYLSKINSTSVVATTCLGINDILFTLNEKDFDYVILDEASQISMPVALGPLRYGNRFIMVGDHYQLPPLVKNDAARLGGLEESLFKTFCEKHPESVAELTLQYRMCGDIVTLSNFLIYDNKLKCGNNEVFAQSLELPMPEALSRYRNESANSKQWLEDILEPTRKVVFLNYDNCPDIIEQSEKDNITNHGEAELTLQCVEGMLLSGVPCEDIGVMTLYRAQLRLLKKIFNKNVYDGLEILTADQFQGRDKKCIIISMVRRNSQLNGGALLKELRRVNVAMTRAKSKLIIIGSKSTIGSVPEIKSFVNLLEERNWVYTMCKDALYKYKFPDRSNAIDEARKGCGKRTGAKPITSKSKFVSDKPIIKEILQEYES","unwinding of 2.2-kbp-long dsDNA by Dna2-E675A, stimulation by the Rfa1-AB variant, against wild type Rfa1-AB",~2.5 fold less efficient
